Test results published in paper PMC11721587, “Morphogen-induced kinase condensates transduce Hh signal by allosterically activating Gli” (Science Advances, 2025).
Substitutions are numbered along the chain they refer to.

B1: Flag-Fu^EE (enzyme)
chain: MNRYAVSSLVGQGSFGCVYKATRKDDSKVVAIKVISKRGRATKELKNLRRECDIQARLKHPHVIEMIESFESKTDLFVVTEFALMDLHRYLSYNGAMGEEPARRVTGHLVSALYYLHSNRILHRDLKPQNVLLDKNMHAKLCDFGLARNMELGEHVLTSIKGTPLYMAPELLAEQPYDHHADMWSLGCIAYESMAGQPPFCASSILHLVKMIKHEDVKWPSTLTSECRSFLQGLLEKDPGLRISWTQLLCHPFVEGRIFIAETQAEAAKESPFTNPEAKVKSSKQSDPEVGDLDEALAALDFGESRQENLTTSRDSINAIAPSDVEHLETDVEDNMQRVVVPFADLSYRDLSGVRAMPMVHQPVINSHTCFVSGNSNMILNHMNDNFDFQASLRGGGVAAKPIVAPTVRQSRSKDLEKRKLSQNLDNFSVRLGHSVDHEAQRKATEIATQEKHNQENKPPAEAISYANSQPPQQQPQQLKHSMHSTNEEKLSSDNTPPCLLPGWDSCDESQSPPIENDEWLAFLNRSVQELLDGELDSLKQHNLVSIIVAPLRNSKAIPRVLKSVAQLLSLPFVLVDPVLIVDLELIRNVYVDVKLVPNLMYACKLLLSHKQLSDSAASAPLTTGSLSRTLRSIPELTVEELETACSLYELVCHLVHLQQQFLTQFCDAVAILAASDLFLNFLTHDFRQSDSDAASVRLAGCMLALMGCVLRELPENAELVERIVFNPRLNFVSLLQSRHHLLRQRSCQLLRLLARFSLRGVQRIWNGELRFALQQLSEHHSYPALRGEAAQTLDEISHFTFFVT
modifications: SUMOylated in Sf9 cells (condensate fraction)
B2: fused (Fu) (enzyme, Drosophila (endogenous in Cl8), UniProt P23647 1-805, looked up)
chain: B1 chain with E151T, E154T
notes: Fu Ser/Thr kinase, Drosophila, endogenous in Cl8 cells; After Hh it is phosphorylated (T158/S159, S482) and SUMO-conjugated; the SDS-resistant dimer is called mature Fu; also called endogenous Fu; mature Fu; source: endogenous, Cl8 cells (fractions, lysates)
B3: Ulk3-HA^WT (in HEK293T) (enzyme, mouse, UniProt Q3U3Q1 1-472, looked up)
chain: MAGPSWGLPRLDGFILTERLGSGTYATVYKAYAKKDTREVVAIKCVAKKSLNKASVENLLTEIEILKGIRHPHIVQLKDFQWDNDNIYLIMEFCAGGDLSRFIHTRRILPEKVARVFMQQLASALQFLHERNISHLDLKPQNILLSSLEKPHLKLADFGFAQHMSPWDEKHVLRGSPLYMAPEMVCRRQYDARVDLWSVGVILYEALFGQPPFASRSFSELEEKIRSNRVIELPLRPQLSLDCRDLLQRLLERDPARRISFKDFFAHPWVDLEHMPSGESLAQARALVVEAVKKDQEGDAAAALSLYCKALDFFVPALHYEVDAQRKEAIKAKVGQYVSRAEELKAIVSSSNQALLRQGTTVQELLREMARDKPRLLAALEVASAALAKEEEAGKEQDALDLYQHSLGELLVLLAAEAPGRRRELLHTEVQNLMARAEYLKEQIKIRESHWEAESLDKEGLSESVRSSCTLQ
modifications: SUMO-conjugated form enriched in the condensates (P100)
notes: source: HEK293T, transfected, overexpressed; in lysate fractions (S100, P100); purified from HEK293T for in vitro maturation; not shown: 3x HA, C-terminal, kept

Key:
[1] = molecular target: the molecule itself; assay: SDS-PAGE and immunoblot (SDS-resistant dimer); SDS-resistant ~250 Kd Fu dimer ('mature Fu') in extracts of cells (Cl8 with Hh-conditioned medium, S2, Sf9, wing discs); tells nothing of SDS-labile association
[2] = molecular target: the molecule itself; assay: co-sedimentation; sedimentation assay of HEK293T cells overexpressing Ulk3-HA constructs; S100 soluble, P100 condensates

Row | Protein | stoichiometry N [1] | binding result [2]
1 | B1 | 2 | –
2 | B2 | 2 | –
3 | B3 | – | binds
